According to patent publication US10590386B2, “Methods and compositions for preparing cardiomyocytes from stem cells and uses thereof” (Insitute of Biophysics, Chinese Academy of Sciences, priority 2010, dated 2020):
Entries after “also recorded” stand apart in the source; their conditions may differ. Where two headings read alike, the source gives them in different places.

Legend:
Assay type in all cases: cell-based, human
[1] = test system: hESC line H7; assay: Cardiac differentiation efficiency of hESCs, CTNT antibody staining and flow cytometry on day 14
Method: (§1) Undifferentiated hESC line H7 from the WiCell Research Institute was maintained on matrigel-coated plates, as previously described^37. In the basic cardiac induction protocol (BP), undifferentiated hESCs were seeded on gelatin-coated plates at a density of 1-5×10^5 cells/cm^2 and cultured with mouse embryonic fibroblast conditioned medium for 3 days until fully confluent. To initiate cell differentiation, the medium was changed to RPMI1640, supplemented with B27 (Invitrogen). Cells were treated with 25 ng/ml BMP4 and 6 ng/ml bFGF at day 1, 100 ng/ml activin A at day 2, and 200 ng/ml DKK1 (R&D Systems) from day 6 to day 11. The medium was changed every 3 days after day 11 (FIG. 1). 250 ng/ml Noggin, 1 μM RA (Sigma) or 1 μM RAi were added to the cell culture at the times specified in FIGS. 1A-C. Spontaneous beating clusters were typically observed at days 10 to 11. Cardiac differentiation efficiency was analyzed on day 14 with CTNT antibody staining and flow cytometry.
Differentiated cell clusters were dissociated into single cells with 0.25% trypsin-EDTA, which were then fixed and stained with anti-human CTNT antibody (R&D Systems) and goat anti-mouse FITC-conjugated secondary antibody (Santa Cruz) in PBS plus 0.5% BSA and 0.1% saponin (Sigma) at 4° C. Stained cells were kept in 4% paraformaldehyde for subsequent quantitative analysis. Data were collected using FACScalibur (Becton Dickinson) and analyzed with FlowJo software (Treestar).

[2] = test system: hESC line H7; assay: Immunostaining and Western blotting of cardiac markers in 60 day-old differentiated cultures
Method: as §1
Sixty (60) day-old differentiated cultures were digested with 0.25% trypsin-EDTA, and the cells were plated on gelatin-coated coverslips for 5 days, allowing full attachment to occur. Cells were then fixed in 4% paraformaldehyde, and incubated with primary antibodies of mouse anti-human CTNT (R&D systems), mouse anti-human α-Actinin (Sigma), mouse anti-human β-MHC (ATCC), mouse anti-human MLC-2a (Synaptic Systems), or rabbit anti-human MLC-2v (ProteinTech Group). Goat anti-mouse secondary antibody conjugated with DyLight 488 (Santa Cruz Biotechnology) and goat anti-rabbit secondary antibody conjugated with Tritc (Santa Cruz Biotechnology) were used as needed. After the nuclei were counterstained with 4′,6-diamidino-2-phenylindole (DAPI, Sigma), immunofluorescence images were visualized and recorded using an Olympus microscope system X51 or Olympus LSCM FV1000.
One well of a 24-well plate of 60 day-old differentiated cells was lysed with RIPA lysis buffer (Biomiga) for Western blotting. […]

[3] = test system: hESC-derived cardiomyocytes; assay: Effect of nifedipine on AP duration of hESC-derived cardiomyocytes (patch clamp); details: myocytes from Noggin+RA-treated cultures; FIG. 4B right
Method: […] to 90 day-old differentiated cultures were washed in a low Ca^2+ solution, and then incubated in an enzyme solution for 20 min at 37° C. The dissociation was completed in KB solution by gently shaking for 40 min at room temperature. The isolated cells were resuspended in DMEM plus 10% FBS, and transferred on 0.1% gelatin-coated glass coverslips, and then kept in an incubator at 37° C., 5% CO2. The composition of the low Ca^2+ solution was (in mM):120 NaCl, 5.4 KCl, 5 MgSO4, 5 Na pyruvate, 20 glucose, 20 taurine, 10 HEPES. The pH was adjusted to 7.3 with NaOH. KB solution contained (in mM): 85 KCl, 30 K2HPO4, 5 MgSO4, 1 EGTA, 2 Na2ATP, 5 Na pyruvate, 20 glucose, 20 taurine, 5 creatine, adjusted to pH 7.3 with KOH.
Action potentials of cardiomyocytes were recorded in a whole-cell patch clamp configuration, using an Axon 200B amplifier (Axon Instruments) at room temperature. Data were digitized at 20 kHz and filtered at 2 kHz, and were analyzed by PClamp 9.0. Patch pipettes (2-4MΩ resistance) were filled with an intracellular solution containing (in mM) 50 KCl, 60 K-Aspartate, 1 MgCl2, 3 Na2ATP, 10 EGTA, 10 mM HEPES, adjusted to pH 7.3 with KOH. Normal Tyrode's solution was used as an extracellular solution and contained (in mM) 140 NaCl, 5 KCl, 1 CaCl2, 1 MgCl2, 10 glucose, 10 HEPES, adjusted to pH 7.4 with NaOH.

[4] = test system: BMP signaling; assay: Western blot for phosphorylated Smad1,5,8; details: data not shown
Method: One well of a 24-well plate of 60 day-old differentiated cells was lysed with RIPA lysis buffer (Biomiga) for Western blotting. Blots were incubated with mouse anti-human CTNT, mouse anti-human β-MHC, rabbit anti-human MLC-2v, goat anti-ANF, mouse anti-human MLC-2a, mouse anti-human β-actin, rabbit anti-phospho smad1/5/8 and rabbit anti-smad1/5/8 separately, and then with HRP-conjugated goat anti-mouse or anti-rabbit antibody.

Molecule	effect on cardiac differentiation efficiency / cardiogenesis of hESCs (summary statement) [1]	effect on cardiac differentiation ([1]; RAi added between days 6 to 9, FIG. 1C)	effect on cardiac differentiation efficiency / cardiogenesis of hESCs (summary statement) ([1]; listed as BMS-189453)	β-MHC expression (western blots) ([2]; 60 day old RA and RAi treated cultures (with Noggin), FIG. 6)	effect on duration of atrial-like APs [3]	effect on cardiac differentiation ([1]; Noggin present between days 2 and 3, FIG. 1B)	effect on cardiac differentiation ([1]; Noggin present between days 2.5 and 4.5, FIG. 1B)	effect on cardiac differentiation ([1]; Noggin present between days 4 and 5, FIG. 1B)	differentiation efficiency (CTNT+ cells, flow cytometry) ([1]; day 14 cultures, Noggin on days 4 and 5, RAi from days 6 to 8, mean±s.e.m, FIG. 1D)	activities of BMP signaling (phosphorylated Smad1,5,8) [4]	cTNT positive cells that are also MLC-2v positive ([2]; 60 day old cultures, immunostaining, FIG. 5)	MLC-2v expression (Western blotting) ([2]; 60 day-old cultures, FIG. 3C, FIG. 5)
CC1(C)CC=C(c2ccccc2)c2cc(/C=C/c3ccc(C(=O)O)cc3)ccc21 [RAi, BMS-189453, reference compound]	significantly promote cardiogenesis	markedly increased	significantly increase	evenly expressed								
COC(=O)C1=C(C)NC(C)=C(C(=O)OC)C1c1ccccc1[N+](=O)[O-] [nifedipine]					No significant effect							
Noggin: BMP antagonist protein, added at 250 ng/ml (protein, UniProt Q13253 28-232, looked up) Noggin: QHYLHIRPAPSDNLPLVDLIEHPDPIFDPKEKDLNETLLRSLLGGHYDPGFMATSPPEDRPGGGGGAAGGAEDLAELDQLLRQRPSGAMPSEIKGLEFSEGLAQGKKQRLSKKLRRKLQMWLWSQTFCPVLYAWNDLGSRFWPRYVKVGSCFSKRSCSVPEGMVCKPSKSVHLTVLRWRCQRRGGQRCGWIPIQYPIISECKCSC	significantly increase; also recorded: significantly promote cardiogenesis					slightly repressed	significantly promoted	Highest cardiac differentiation efficiencies	50%±3.06%	reduced the activities of BMP signaling	about 35%	weak MLC-2v expression
